Data reported in patent US20210317168.

Molecular target: purified MN gp120 (clade B), P05877

B1: Calcium-dependent serine protease, complement component 1s (C1s) of CHO cells (protein)
chain: EPTMHGEILSPNYPQAYPNEIEKTWDIEVPEGFGIRLYFTHLDMELSENCEYDSVQIISGGVEEGRLCGQRTSKNANSPIVEEFQMPYNKLQVIFRSDFSNEERFTGFAAYYAAVDINECTDFTDVPCSHFCNNFIGGYFCSCPPEYFLHDDMRNCGVNCSGNVFTALIGEISSPNYPSPYPENSRCEYQILLEEGFQVVVTIRREDFDVEPADSEGNCQDSLLFAAKNQLFGPYCGNGFPGPLTIETHSNTLDIVFQTDLTEQRKGWKLRYHGDPIPCPKEITANSVWVPEKAKYVFKDVVKISCVDGFEVVEGNVGSAFFYSTCQSNGQWSNSRLQCQPVDCGIPEPIQNGKVDDPENTVFGSVIQYSCEEPYYYMEHEEHGGEYRCAANGSWVNDELGIELPKCVPVCGVPTEPIALQQRIFGGFPAKIQSFPWQVFFESPRAGGALIDEYWVLTAAHVVEGNSDPSMYVGTTFVRMEHLANAQRLTAERVIIHPGWKPADDLETRTNFDNDIALVQLKDPVKMGPTVSPICLPGTSSEYNPSKNDLGLISGWGRTEKRNIVPQLKGAKLPVTSLEKCQQVKGENSKVRADDYVFTSNMICAGEKGVDSCQGDSGGAFALQVPNVKDPKFYVAGLVSWGKKCGTYGIYTKVKNYMDWIVKTMQENSVPSKD
  proteolysis of gp120 in 10x concentrated CHO supernatant, western blot, with or without EGTA: inhibition of proteolysis of gp120 in CHO cell supernatant with EGTA, a calcium-chelating agent suggested that C1s is the major protease responsible for gp120 cleavage
